Earlier results on 1 substance are cited in paper PMC6667839.

In general, Kd refers to a measure of binding affinity in units of concentration.

The target in this data set is IL-33 112-270 (Homo sapiens) (UniProt O95760).
Chain of UniProt O95760 (O95760 112-270): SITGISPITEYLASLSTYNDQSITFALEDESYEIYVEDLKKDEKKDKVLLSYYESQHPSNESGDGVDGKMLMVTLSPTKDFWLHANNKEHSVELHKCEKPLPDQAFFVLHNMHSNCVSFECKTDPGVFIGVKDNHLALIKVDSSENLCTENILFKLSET

sST2 (from UniProt Q01638): the Kd was 4 nM.
